Measurements: the supplement of paper PMC9732359
± gives the uncertainty stated by the source.

Experiment: protein stability index of a GFP-peptide fusion (yeast GPS) (PSI 1-4); higher = more stable; sorted into four equal gates, so the index is relative within each strain
Method in brief: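 Sequencing reads from sorted gates were used to score each peptide. The library consisted of tiled 17-residue yeast protein peptides fused downstream of GFP on a Cherry-expressing plasmid, pooled and carried in yeast. Mid-log cultures in leucine-free medium were split into four equal gates by GFP/Cherry ratio, and each gate's plasmids were PCR-amplified and Illumina-sequenced. The protein stability index adds up, over all gates, the read frequency multiplied by the gate number.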

Sequence | protein stability index (doa10∆) | protein stability index (pdr5∆) | protein stability index (san1∆) | protein stability index (ubr1∆)
NILFSLWKLLSTVKVSD [YLR018C/POM34] | 1.76 ± 0.07 | 1.46 ± 0.058 | 1.58 ± 0.12 | 1.55 ± 0.057
SDSNANAAVAGVANTDT [SWI3] | 3.28 ± 0.063 | 3.33 ± 0.07 | 3.22 ± 0.044 | 2.91 ± 0.061
LPEKVNFRTMQQQQMQQ [SSN2] | 2.3 ± 0.18 | 2.75 ± 0.18 | 2.46 ± 0.19 | 2.38 ± 0.14
AITNTGPREDTTRVGGG [RPS5] | 3.04 ± 0.074 | 3.05 ± 0.073 | 2.9 ± 0.07 | 3.18 ± 0.054
LVGSWKKDRATGDADEP [RPO21] | 3.14 ± 0.22 | 3.55 ± 0.11 | 3.15 ± 0.11 | 3.46 ± 0.081
VQNSTLAQLTSKLIPEV [RPS1B] | 2.19 ± 0.084 | 2.73 ± 0.062 | 2.27 ± 0.12 | 2.55 ± 0.047
MSSVQSKILSQAPSELE [RPS7B] | 2.58 ± 0.08 | 2.72 ± 0.083 | 2.61 ± 0.098 | 2.04 ± 0.1
LFQDGSASLHTRSLKYG [RRP4] | 2.48 ± 0.085 | 2.76 ± 0.088 | 2.59 ± 0.1 | 2.88 ± 0.059
SKYLIKQIDIPNFNVEI [ECM29] | 1.57 ± 0.069 | 2.01 ± 0.091 | 2.57 ± 0.072 | 2.39 ± 0.059
RAKKTRALRRALTKFEA [RPL35A] | – | – | – | 3.11 ± 0.15
WYLILSIISSKTSCVVE [RGR1] | 1.46 ± 0.13 | 1.23 ± 0.12 | 1.58 ± 0.26 | 1.18 ± 0.1
STTTSVNGSTTAGVGST [SIN4] | 3.06 ± 0.044 | 2.99 ± 0.048 | 3.07 ± 0.041 | 2.85 ± 0.036
QIIRLFYSKNRLLITGT [ISW2] | 2.55 ± 0.23 | 1.56 ± 0.14 | – | –
TKFKGGKRQLMKAVGEY [SEC65] | 2.88 ± 0.098 | 3.11 ± 0.11 | 3.26 ± 0.056 | 2.46 ± 0.088
EVINKEIENATKDIFPL [RPS1A] | 3.25 ± 0.29 | 2.74 ± 0.19 | 2.9 ± 0.13 | 3.16 ± 0.082
SKKGSLENNIREFPEYF [RPL10] | 2.95 ± 0.12 | 3.23 ± 0.084 | 3.29 ± 0.057 | 3.36 ± 0.069
VKLGNIWKESLIELSGG [SMC2] | 2.22 ± 0.18 | 2.24 ± 0.098 | 2.12 ± 0.14 | 2.19 ± 0.1
NTHNKSTKRVTKHPSLK [POP7] | 2.6 ± 0.07 | 2.78 ± 0.062 | 2.67 ± 0.044 | 2.72 ± 0.046
ALSLLYHLLNYDPIKRI [SSN3] | 2.56 ± 0.073 | 2.05 ± 0.051 | 2.39 ± 0.072 | 2.19 ± 0.039
DGHLQFLNDVIPTTKNL [DLS1] | 2.96 ± 0.094 | 3.05 ± 0.068 | 2.8 ± 0.072 | 3.04 ± 0.073
PEHLRKIINTHSDMASK [PRP8] | 2.01 ± 0.053 | 2.04 ± 0.051 | 2.15 ± 0.097 | 2.37 ± 0.039
PRLEKLINEILLKSNDP [RGR1] | 1.68 ± 0.059 | 2.01 ± 0.045 | 1.75 ± 0.079 | 1.86 ± 0.039
MKDRLVEWNDQVEKLGK [RPN9] | 3.4 ± 0.13 | 3.06 ± 0.1 | 3.36 ± 0.083 | 3.39 ± 0.085
NVTFGSKKDPRILKNVS [YMR153W/NUP53] | 2.81 ± 0.053 | 2.69 ± 0.056 | 2.81 ± 0.045 | 2.67 ± 0.035
SILGKFCPIVEEIVSNS [YCS4] | 1.95 ± 0.091 | 1.51 ± 0.12 | 1.6 ± 0.14 | 1.55 ± 0.066
NDWQMLEMLKPCVEDGF [RPB2] | 2.79 ± 0.09 | 3.22 ± 0.21 | 3.06 ± 0.12 | 2.68 ± 0.099
KEKEAAESPEEADVEMS [PUP2] | 3.41 ± 0.11 | 3.51 ± 0.11 | 2.99 ± 0.076 | 3.28 ± 0.071
